Source: the supplement of paper PMC7125110
± gives the standard error. This sample holds only a part of the variants without activity.

B1: glmS ribozyme (parent)
chain: AUAAAAGCGCCAGAACUACAGAAAUGUAGUUGACGAGGAGGAGGUUUAUCGAAUUUUCGGCGGAUGCCUCCAAA

What was measured:
Conditions in all cases: with glucosamine-6-phosphate
glucosamine-6-phosphate [1] = variants of: B1; assay: self-cleavage kobs at 40 uM GlcN6P; higher = faster cleavage; RNA array
How it was run: (§1)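 A hybridised Cy3 probe tracked barcoded ribozyme variants, transcribed in situ by E. coli RNA polymerase on sequenced MiSeq chips, at 37 °C. The variants received 40 μM to 10 mM glucosamine-6-phosphate in HEPES/KCl/Mg(OAc)2 buffer. kobs came from decay fits and kcat and KM from weighted Michaelis–Menten fits.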

glucosamine-6-phosphate [2] = variants of: B1; assay: self-cleavage kobs at 10000 uM GlcN6P; higher = faster cleavage; RNA array
How it was run: as §1

glucosamine-6-phosphate [3] = variants of: B1; assay: self-cleavage kobs at 160 uM GlcN6P; higher = faster cleavage; RNA array
How it was run: as §1

glucosamine-6-phosphate [4] = variants of: B1; assay: self-cleavage kobs at 2500 uM GlcN6P; higher = faster cleavage; RNA array
How it was run: as §1

glucosamine-6-phosphate [5] = variants of: B1; assay: self-cleavage kobs at 640 uM GlcN6P; higher = faster cleavage; RNA array
How it was run: as §1

Variant | self-cleavage kobs at 40 uM GlcN6P (glucosamine-6-phosphate [1]) | self-cleavage kobs at 10000 uM GlcN6P (glucosamine-6-phosphate [2]) | self-cleavage kobs at 160 uM GlcN6P (glucosamine-6-phosphate [3]) | self-cleavage kobs at 2500 uM GlcN6P (glucosamine-6-phosphate [4]) | self-cleavage kobs at 640 uM GlcN6P (glucosamine-6-phosphate [5])
C16G A48C C50A C58U A64U | < 1e-05 s⁻¹ | < 1e-05 s⁻¹ |  |  | 
A15U G38C G66U C67U | < 1e-05 s⁻¹ | < 1e-05 s⁻¹ |  |  | 
C8U G9U U30G A64C | < 1e-05 s⁻¹ | < 1e-05 s⁻¹ |  |  | 
G37C U46G A48U | < 1e-05 s⁻¹ | < 1e-05 s⁻¹ |  |  | 
G7U A52G | < 1e-05 s⁻¹ |  | < 1e-05 s⁻¹ |  | 
U56G G62A G63A | < 1e-05 s⁻¹ |  |  |  | 
A6C A36U | < 1e-05 s⁻¹ | < 1e-05 s⁻¹ |  | < 1e-05 s⁻¹ | 
C8U U45C | < 1e-05 s⁻¹ |  | < 1e-05 s⁻¹ | < 1e-05 s⁻¹ | < 1e-05 s⁻¹
C10U A33C | < 1e-05 s⁻¹ |  | < 1e-05 s⁻¹ | < 1e-05 s⁻¹ | < 1e-05 s⁻¹
A6C G62U | < 1e-05 s⁻¹ | < 1e-05 s⁻¹ | < 1e-05 s⁻¹ | < 1e-05 s⁻¹ | 
U55G G63A | < 1e-05 s⁻¹ | < 1e-05 s⁻¹ | < 1e-05 s⁻¹ | < 1e-05 s⁻¹ | < 1e-05 s⁻¹
A15C G59U | < 1e-05 s⁻¹ |  | < 1e-05 s⁻¹ |  | < 1e-05 s⁻¹
A14C C16G C50G | 8.94e-05 ± 3.4e-05 s⁻¹ |  |  |  | 
C11G U31A C50G U57G | 0.000129 ± 3.6e-05 s⁻¹ | 5.06e-05 ± 1.6e-05 s⁻¹ |  | 7.48e-05 ± 3e-05 s⁻¹ | 
U49G G51A G63A | < 1e-05 s⁻¹ | < 1e-05 s⁻¹ |  |  | 
U46C U57A | < 1e-05 s⁻¹ | 5.47e-05 ± 1.8e-05 s⁻¹ |  |  | 
U56A C61U | < 1e-05 s⁻¹ |  | < 1e-05 s⁻¹ |  | 
G35U G40A | < 1e-05 s⁻¹ | < 1e-05 s⁻¹ | < 1e-05 s⁻¹ |  | < 1e-05 s⁻¹
G37C C50G C58G C67G | 0.00014 ± 3.9e-05 s⁻¹ | 0.000593 ± 0.00017 s⁻¹ | 0.00039 ± 0.00012 s⁻¹ | 6.52e-05 ± 2.2e-05 s⁻¹ | 0.000349 ± 8.1e-05 s⁻¹
U47C U49A U54G C68A | < 1e-05 s⁻¹ | < 1e-05 s⁻¹ |  |  | 
G7A C8A A42C U69A | < 1e-05 s⁻¹ | < 1e-05 s⁻¹ |  |  | 
U46A G60U | < 1e-05 s⁻¹ |  | < 1e-05 s⁻¹ | < 1e-05 s⁻¹ | 
A36C A53G | < 1e-05 s⁻¹ | < 1e-05 s⁻¹ |  |  | 
G9A A64C | < 1e-05 s⁻¹ |  | < 1e-05 s⁻¹ | < 1e-05 s⁻¹ | < 1e-05 s⁻¹
